In US20230025280A1, “PH RESPONSIVE COMPOSITIONS, FORMULATIONS, AND METHODS OF IMAGING A TUMOR” (ONCONANO MEDICINE, INC, priority 2019, published 2023):
Values joined by “and” are separate entries in the source; they are usually repeats but may differ in a detail not shown here. Identical values can stand only once. “Also recorded” adds a separate entry of the source.

Legend:
[1] = tested on: tumor positive surgical margins; experiment: Fluorescence detection of tumor positive surgical margins versus final histopathology; format: in vivo, human; details: 1.2 mg/kg; EC; per patient
[2] = tested on: histology-confirmed tumor and normal tissue; experiment: Postoperative tissue slice fluorescence imaging (LI-COR Pearl; MFI, CNR, TBR, ROC) correlated with histopathology; format: in vivo, human; details: for Ex Vivo Tissue Slice CNR / Ex Vivo Tissue Slice TBR: per patient, LI-COR Pearl
Source text: Timing of postoperative tissue slice imaging was adapted to accommodate the differences in the SOC for specimen processing of the different tumor types. Briefly, BC specimens were sliced fresh on the day of surgery and then formalin fixed, other tumor types were sliced after formalin fixation of the whole resection specimen 1 to 3 days after surgery. Generally, the surgical specimen was serially sliced into ±0.5 cm thick tissue slices. White light photographs were made during and directly after slicing for orientation purposes. After slicing, fluorescence imaging on both sides of each tissue slice was performed in a light-tight environment (LI-COR PEARL® Trilogy system). BC slices were therefore imaged approximately 120 min after excision, other tumor types were sliced and imaged the subsequent day(s) after excision and formalin fixation.
Each BLS underwent overnight formalin fixation in 4% paraformaldehyde/phosphate buffered saline. The pathologist then macroscopically sampled parts of BLS (FFPE embedding) for further analysis according to SOC and preparation of 4 μm slices for hematoxylin and eosin (H/E) staining to delineate tumor tissue for histopathological correlation. Additional FFPE blocks could be embedded based on fluorescence imaging of the BLS additional to the SOC examination by conventional macroscopic visual inspection of the pathologist. A standardized workflow was executed in order to cross-correlate final histopathology results with recorded fluorescence images of tissue slices of interest. FFPE blocks were scanned after 7 to 14 days using the Odyssey Flatbed Scanner (LI-COR Bioscience).
After the SOC pathological procedure was performed (approximately 7-10 days for Phase 1a and 7-14 days for Phase 1b), H/E slices were reviewed and discussed with the dedicated board-certified pathologist for the respective tumor type.
A correlation between HE slices and fluorescence images (i.e., bread loaf slice or BLS) were made using Adobe Illustrator and Fiji (ImageJ). After precisely and manually drawing the region of interest (ROI) containing tumor and background based on the histopathological outcome, a CNR was calculated for each LI-COR PEARL image of a separate BLS for each patient. The median CNR was calculated based on all available BLS containing tumor.
Compound 1 fluorescence images were captured from the postoperative specimens (BLS specimens) prepared at each step of the standard pathology for the purposes of correlating Compound 1 fluorescence with histopathological finding of the tumor and the normal tissue. LI COR PEARL, a laboratory camera with capabilities to standardize imaging and fluorescence quantification, was used to compare fluorescence intensity across multiple specimens.
Intraoperative fluorescence intensity cannot be standardized and compared between patients or dose levels due to the unique presentation of each surgical environment. Multiple variables such as camera angle, camera-tissue distance, tumor location, and coverage by other tissues or fat affect the absolute value of the fluorescence signal. To enable direct comparison of MFI across patients and doses, patient tissue slices were imaged with LI-COR Pearl, the standardizable close field camera, using the standard postoperative workflow for fluorescence.

[3] = Stability of Compound 1 at long-term storage condition of −80° C.; format: physicochemical
lymph node metastases = experiment: Lymph node imaging (PEARL) versus H/E staining; format: in vivo, human
Source text: After lymph node dissection, lymph nodes were identified by the attending pathologist and harvested if present. After harvesting, the single lymph nodes were imaged before further processing using PEARL imaging. The images were processed using ImageJ (FiJi). The fluorescent images were reviewed by 2 separate researchers blinded for histology, whether fluorescence was present. The pathologist, blinded for fluorescence images, evaluated whether the lymph node was positive for tumor invasion or isolated tumor cells based on H/E staining.

[4] = 403 lymph nodes across 4 tumor types
[5] = TOTAL of all patients, 403 lymph nodes
[6] = lymph nodes per patient, fluorescence vs H/E pathology

## PEO90-140-b-P(DBA60-150-r-ICG0-3-r-AMA0-3) [Compound 1]
[1]
  Surgical Margin by Fluorescence: Negative
[2]; 0.1 mg/kg, HNSCC
  Ex Vivo Tissue Slice CNR: 3.5 and 3.2 and 0.9
  Ex Vivo Tissue Slice TBR: 4.5 (2×) and 1.9
[2]; 0.3 mg/kg, BC
  Ex Vivo Tissue Slice CNR: 7.0 and 14.1 and 3.2
  Ex Vivo Tissue Slice TBR: 4.5 and 27.0 and 4.2
[2]; 0.5 mg/kg, BC
  Ex Vivo Tissue Slice CNR: 6.4
  Ex Vivo Tissue Slice TBR: 5.0
[2]; 0.5 mg/kg, HNSCC
  Ex Vivo Tissue Slice CNR: 3.1 and 1.8
  Ex Vivo Tissue Slice TBR: 3.9 and 2.2
[2]; 0.8 mg/kg, BC
  Ex Vivo Tissue Slice CNR: 5.7 and 9.2
  Ex Vivo Tissue Slice TBR: 8.0 and 11.9
[2]; 0.8 mg/kg, HNSCC
  Ex Vivo Tissue Slice CNR: 4.8
  Ex Vivo Tissue Slice TBR: 5.9
[2]; 1.2 mg/kg, BC
  Ex Vivo Tissue Slice CNR: 3.9 and 10.5 and 7.6 and 3.4
  Ex Vivo Tissue Slice TBR: 4.8 and 14.2 and 12.0 and 4.2
[2]; 1.2 mg/kg, CRC
  Ex Vivo Tissue Slice CNR: 12.8
  Ex Vivo Tissue Slice TBR: 16.9
[2]; 1.2 mg/kg, EC
  Ex Vivo Tissue Slice CNR: 2.9 and 2.1
  Ex Vivo Tissue Slice TBR: 3.4 and 3.2
[2]; 1.2 mg/kg, HNSCC
  Ex Vivo Tissue Slice CNR: 2.4 and 1.9 (2×) and 3.5 (2×) and 2.8 and 4.4
  Ex Vivo Tissue Slice TBR: 2.9 and 2.2 and 5.4 and 3.7 and 2.5 and 6.5 and 5.2
[2]; Phase 1a, 0.1 to 1.2 mg/kg
  Patient tumor specimens with postoperative imaging feasibility: 15
[2]; all dose cohorts
  Tumor MFI compared with non-tumor tissue: significantly higher
[2]; all tissue slices (n=97 from 26 subjects), IQR 3.1
  Median tumor-to-background ratio (TBR): 4.5
[2]; all tumor types and doses
  Postoperative fluorescence of tumors: fluoresced in tissue slices from all the patients and tumor types; also recorded: all tumors irrespective of tumor type or dose were fluorescent
[2]; postoperative tissue slices, 0.1 to 1.2 mg/kg
  Tumor MFI in relation to dose: increased with dose
[2]; tissue slices, 1.2 mg per kg dose cohort, n=59
  ROC curve AUC: 0.9875
[2]; tissue slices, measurement level, P<0.0001
  ROC curve area under the curve: 0.9726
[2]; tissue slices, 1.2 mg/kg, IQR 3.0
  TBR: 4.5
[3]; 0 months
  % ICG 784 nm (% wt): 1.3%
  Appearance: Pass
  Assay RID - Polymeric Content SEC (% wt): 96.4%
  Content 784 nm (% wt): 80.9%
  Identification - SEC (RT): Pass
  Impurities Specified: ICG-like: 1.9%
  Microbial Limits Total aerobic count: <1 cfu/mg
  Microbial Limits Total yeast and mold: <1 cfu/mg
  Total Impurities: 1.9%
  Water Content: 0.48%
[3]; 3.0 mg/mL injection, the duration thus far
  Duration stable at long-term storage condition: up to 24 months
[3]; 1 month
  % ICG 784 nm (% wt): 1.4%
  Appearance: Pass
  Assay RID - Polymeric Content SEC (% wt): 98.5%
  Content 784 nm (% wt): 82.0%
  Identification - SEC (RT): Pass
  Impurities Specified: ICG-like: 1.8%
  Total Impurities: 1.8%
  Water Content: 0.33%
[3]; 6 months
  % ICG 784 nm (% wt): 1.4%
  Appearance: Pass
  Assay RID - Polymeric Content SEC (% wt): 102.3%
  Content 784 nm (% wt): 86.2%
  Identification - SEC (RT): Pass
  Impurities Specified: ICG-like: 1.7%
  Total Impurities: 1.7%
  Water Content: 0.54%
[3]; 12 months
  % ICG 784 nm (% wt): 1.3%
  Appearance: Pass
  Assay RID - Polymeric Content SEC (% wt): 90.4%
  Content 784 nm (% wt): 74.7%
  Identification - SEC (RT): Pass
  Impurities Specified: ICG-like: 1.7%
  Microbial Limits Total aerobic count: <1 cfu/mg
  Microbial Limits Total yeast and mold: <1 cfu/mg
  Total Impurities: 1.7%
  Water Content: 0.74%
[3]; 18 months
  % ICG 784 nm (% wt): 1.5%
  Appearance: Pass
  Assay RID - Polymeric Content SEC (% wt): 100.4%
  Content 784 nm (% wt): 94.7%
  Identification - SEC (RT): Pass
  Impurities Specified: ICG-like: 0.6%
  Total Impurities: 0.6%
  Water Content: 0.64%
[3]; 24 months
  % ICG 784 nm (% wt): 1.5%
  Appearance: Pass
  Assay RID - Polymeric Content SEC (% wt): 99.7%
  Content 784 nm (% wt): 98.1%
  Identification - SEC (RT): Pass
  Impurities Specified: ICG-like: 0.6%
  Microbial Limits Total aerobic count: <1 cfu/mg
  Microbial Limits Total yeast and mold: <1 cfu/mg
  Total Impurities: 0.6%
  Water Content: 0.51%
Lymph node metastases; 30/(30+34)
  Overall sensitivity in lymph nodes: 0.47
Lymph node metastases; 293/(46+293)
  Overall specificity in lymph nodes: 0.86
Lymph node metastases; [4]
  Lymph nodes fluorescence negative / H/E negative: 293 of 339 and 293
  Lymph nodes fluorescence negative / H/E positive: 34
  Lymph nodes fluorescence negative, TOTAL: 327
  Lymph nodes fluorescence positive / H/E negative: 46
  Lymph nodes fluorescence positive / H/E positive: 30
  Lymph nodes fluorescence positive, TOTAL: 76
Lymph node metastases; [5]
  False Negatives n: 34
  False Positives n: 46
  True Negatives n: 293
  True Positives n: 30
Lymph node metastases; [6]
  False Negatives n: 0 (23×) and 1 (4×) and 3 and 2 and 25
  False Positives n: 0 (12×) and 3 (4×) and 1 (9×) and 4 and 2 (2×) and 6 and 11
  True Negatives n: 0 (12×) and 50 and 14 (2×) and 7 and 44 and 20 and 2 (3×) and 34 and 1 (2×) and 15 and 41 and 8 and 16 and 18 and 4
  True Positives n: 2 (2×) and 0 (22×) and 1 (4×) and 12 and 10
